Measured values reported in US20230144436A1, “MUSCLE TARGETING COMPLEXES AND USES THEREOF FOR TREATING MYOTONIC DYSTROPHY” (Dyne Therapeutics, Inc., priority 2020, published 2023).
Residue numbers refer to the chain shown, from its start.

B1: 4-C5 (antibody, V domains shown)
VH: QVQLQQSGAELMKPGASVKISCKATGYTFSNYWIEWVKQRPGHGLEWIGEILPGSGSTNYNENFKGKATFTADTSSNTAYMQLSSLTSEDSAVYYCARRGAYGNFHYWGQGTTLTVSS
VL: EIVLTQSPALMAASPGEKVTITCSVSSSISSSNLHWYQQKSETSPKPWIYGTSNLASGVPVRFSGSGSGTSYSLTISSMEAEDAATYYCQQWRSYPYTFGGGTKLEIK
B2: 8-O17 (antibody, V domains shown)
VH: QVQLKESGPGLVAPSQSLSITCTVSGFSLTNYGVHWVRQPPGKGLEWLVVIWNDGSATYNSALESRLSISKDNSKSQVFLKMNSLQTDDTAMYYCARHESSNPFAYWGQGTLVTVSA
VL: DILLTQSPAILSVSPGERVSFSCRASQSIGTSIHWYQQRTNGSPRLLIKSASESIAGIPSRFSGSGSGTDFTLSINSVESEDIADYYCQQNNRWPYTFGGGTKLEIK
B3: 10-H2 (antibody, V domains shown)
VH: EVQLVESGGDLVKPGGSLKLSCAASGFTFSDYGMHWVRQGPEKGLEWVAYINSGSSTIYYADTVKGRFTISRDNAKNTLFLQMTSLRSEDTAMYYCARPGDYDNYAMDYWGQGTSVTVSS
VL: DIVMTQSHKFLSTSVGDRVSITCKASQDVSVAVAWYQQKPGQSPKLLIYWAYTRHTGVPDRFTGSGSGTEYTLTISSVQAEDLALYYCQQHYNTPPWTFGGGTKLEIK
B4: 9-K23 (antibody, V domains shown)
VH: QVTLKESGPGMLQPSQTLSLTCSFSGFSLNTYDVGVGWIRQPSGKGLEWLANIWWNDDKYYNSALKSRLTISKDTSNNQVFLKISSVDTADTATYYCTLYSYDGGFAYWGQGTLVTVSA
VL: QIVLTQSPAIMSASLGERVTMTCTASSSVSSSYLHWYQQKPGSSPKLWIYSTSNLASGVPARFSGSGSGTSYSLTISSMEAEDAATYYCHQYHRSPYTFGGGTKLEIK
B5: 3-M12 (antibody, V domains shown)
VH: DVQLQESGPGLVKPSQSLSLTCSVTGYSITSGYYWNWIRQFPGNKLEWMGYITFDGANNYNPSLKNRISITRDTSKNQFFLKLTSVTTEDTATYYCTRSSYDYDVLDYWGQGTTLTVSS
VL: DIQMTQTTSSLSASLGDRVTISCRASQDISNFLNWYQQRPDGTVKLLIYYTSRLHSGVPSRFSGSGSGTDFSLTVSNLEQEDIATYFCQQGHTLPYTFGGGTKLEIK
B6: 2-H19 (antibody, V domains shown)
VH: EVQLQQSGAELVRSGASVKLSCTASGFNIKDYYMHWVKQRPEQGLEWIGWIDPESGDTEYAPKFQGRATMTADTSSNTAYMQLSSLTSEDTAVYYCYGHDYRVDCWGQGTSVTVSS
VL: DVVMTQTPLSLPVSLGDQASISCRSSQSLVHSNGNTYLHWYLQKPGQSPKLLIYKVSNRFSGVPDRFSGSGSGTDFTLKISRVEAEDLGVYFCSQSTHIPWTFGGGTKLEIK
B7: 4-J22 (antibody, V domains shown)
VH: EVQLQQSGAELVRSGASVKLSCTASGFNIKDYYIHWVKQRPEQGLEWIGWIDPENADTEYAPKFQGKATMTPDTSSNTAYLQLSSLTSEDTAVYYCYAWDYSMDYWGQGTSVTVSS
VL: B6 VL with P12S, T77I, S96N, I99V, W101Y, K108R

Test system: DMPK
Experiment: DMPK knockdown by anti-TfR1 antibody-oligonucleotide conjugates in DM1 patient myotubes
Assay type: cell-based, human
Conditions: DM1 patient myotubes, conjugate with control DMPK-ASO, 72 hours; concentration not stated (0.5, 5, 50 nM tested)
Method: (§1) The purified complexes were then tested for cellular internalization and inhibition of the target gene, DMPK. Non-human primate (NHP) or DM1 (donated by DM1 patients) cells were grown in 96-well plates and differentiated into myotubes for 7 days. Cells were then treated with escalating concentrations (0.5 nM, 5 nM, 50 nM) of each complex for 72 hours. Cells were harvested, RNA was isolated, and reverse transcription was performed to generate cDNA. qPCR was performed using TaqMan kits specific for Ppib (control) and DMPK on the QuantStudio 7. The relative amounts of remaining DMPK transcript in treated vs non-treated cells was were calculated and the results are shown in Table 14 and FIG. 20.
as §1, with “of” for “of the target gene,”, “in” for “in Table 14 and”, “23.” for “20.”

| Molecule | % knockdown of DMPK in cells from human DM1 patients using Antibody-DMPK ASO conjugate [%] |
| --- | --- |
| B1 | 35 |
| B2 | 41 |
| B3 | 16 |
| B4 | −4 |
| B5 | 52 |
| B6 | 24 |
| B7 | 57 |

Same assay, conditions: conjugates with control DMPK-ASO, in either cyno cells or human DM1 patient cells

| Molecule | activity in delivering a payload (DMPK ASO) and achieving DMPK knockdown compared to the control antibody 15G11 |
| --- | --- |
| B5 | superior activity |

Biological target: hTfR1 (Homo sapiens, UniProt P02786)
Experiment: Binding kinetics of anti-TfR1 antibodies on Carterra LSA, hTfR1
Conditions: Carterra LSA at 25 C
Method: Selected anti-TfR1 antibodies were tested for their binding affinity to human TfR1 for measurement of Ka (association rate constant), Kd (dissociation rate constant), and KD (affinity). […] The binding experiment was performed on Carterra LSA at 25 C. An anti-mouse IgG and anti-human IgG antibody “lawn” was prepared on a HC30M chip by amine coupling. 59 IgGs (58 mouse mAbs and 1 human mAb) were captured on the chip. Dilution series of hTfR1, cyTfR1, and hTfR2 were injected to the chip for binding (starting from 1000 nM, 1:3 dilution, 8 concentrations).
Binding data were referenced by subtracting the responses from a buffer analyte injection and globally fitting to a 1:1 Langmuir binding model for estimate of Ka (association rate constant), Kd (dissociation rate constant), and KD (affinity) using the Carterra™ Kinetics software. 5-6 concentrations were used for curve fitting.

Sequence of hTfR1 (P02786 whole entry): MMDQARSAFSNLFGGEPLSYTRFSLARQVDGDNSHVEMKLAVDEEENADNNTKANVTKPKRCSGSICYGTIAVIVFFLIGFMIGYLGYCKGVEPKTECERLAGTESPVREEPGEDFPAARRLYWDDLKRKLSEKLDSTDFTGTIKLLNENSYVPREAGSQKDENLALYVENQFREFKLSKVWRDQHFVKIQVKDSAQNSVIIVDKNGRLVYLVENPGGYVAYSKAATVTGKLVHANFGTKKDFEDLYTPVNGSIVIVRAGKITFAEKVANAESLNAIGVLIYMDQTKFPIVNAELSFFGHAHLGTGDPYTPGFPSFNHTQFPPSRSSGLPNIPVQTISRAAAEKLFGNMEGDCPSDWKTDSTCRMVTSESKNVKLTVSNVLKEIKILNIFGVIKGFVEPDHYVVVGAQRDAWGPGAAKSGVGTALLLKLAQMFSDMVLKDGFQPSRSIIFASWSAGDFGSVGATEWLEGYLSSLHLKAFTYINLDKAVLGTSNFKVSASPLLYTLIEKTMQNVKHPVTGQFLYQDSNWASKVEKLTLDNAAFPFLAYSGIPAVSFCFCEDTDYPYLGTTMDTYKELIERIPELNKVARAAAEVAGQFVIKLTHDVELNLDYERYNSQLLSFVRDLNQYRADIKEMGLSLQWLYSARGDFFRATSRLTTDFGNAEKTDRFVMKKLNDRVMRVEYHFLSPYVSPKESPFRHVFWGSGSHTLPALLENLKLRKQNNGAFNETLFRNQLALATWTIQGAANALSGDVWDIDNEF

| Molecule | dissociation rate constant (koff) [µM] |
| --- | --- |
| B2 | 91.2 |
| B4 | 21.7 |
| B5 | 127 |
| B6 | 456 |

Test system: DMPK
Experiment: DMPK knockdown by anti-TfR1 antibody-oligonucleotide conjugates in NHP myotubes
Assay type: cell-based, non-human primate
Conditions: conjugate with control DMPK-ASO, 72 hours, concentration not stated (0.5, 5, 50 nM tested)
Method: as §1
as §1, with “of” for “of the target gene,”, “in” for “in Table 14 and”, “23.” for “20.”

| Molecule | % knockdown of DMPK in NHP cells using Antibody-DMPK ASO conjugate [%] |
| --- | --- |
| B1 | −20 |
| B2 | 26 |
| B3 | 2 |
| B4 | 47 |
| B5 | 77 |
| B6 | 39 |
| B7 | 7 |
